Experimental findings from patent publication US20210032294A1, “MODIFIED PlySs2 LYSINS AND USES THEREOF” (CONTRAFECT CORPORATION, priority 2018, published 2021) are described below.

In general, MIC50 refers to the lowest concentration that inhibits either 50% of growth or 50% of the strains tested, depending on the study. Low readings indicate greater potency, high ones weaker potency. The term MIC90 denotes the lowest concentration that inhibits either 90% of growth or 90% of the strains tested, depending on the study.

Entries after “also recorded” stand apart in the source; their conditions may differ.

The subject of series [1] is MSSA isolates. Briefly: MIC in CAMHB-HSD against MSSA isolates. Format: cell-based, Staphylococcus aureus. The settings on record: 51 MSSA isolates. The procedure: (§1) In vitro activity of the modified lysin polypeptide pp296 was assessed against a range of 51 MSSA and 51 MRSA isolates in cation-adjusted Mueller Hinton broth supplemented with 25% horse serum and 0.5 mM DTT (CAMHB-HSD) and compared to WT GMP grade PlySs2 (CF-301). CF-301 and pp296 were each diluted into CAMHB-HSD. For each lysin, the dilution series is set up such that, after a two-fold dilution of each well of the plate, the final concentrations contained: 64, 32, 16, 8, 4, 2, 1, 0.5, 0.25, and 0.125 μg/mL. Each lysin was tested in duplicate against each strain. Preparations were incubated overnight. Growth was visualized as a growth button approximately 2 mm in diameter. The highest dilution that yielded ≥80% growth inhibition was called the minimum inhibitory concentration (MIC). The activity of pp296 was very similar, within one 2-fold dilution, to that of CF-301, as shown below in Table 7.

Series [2] concerns MRSA isolates. As to the kind of experiment: MIC in CAMHB-HSD against MRSA isolates. Format: cell-based, Staphylococcus aureus. To be noted: 51 MRSA isolates. The procedure:
as §1

Series [3] concerns 5 MRSA strains and 5 MSSA strains. As to the kind of experiment: Checkerboard synergy assay with daptomycin or vancomycin. Format: cell-based, Staphylococcus aureus. To be noted: for FIC index: with vancomycin. The procedure:
Synergy studies with antibiotics suitable for treatment of Gram-positive bacteria, for example, daptomycin (DAP) and vancomycin (VAN), were performed using a checkerboard assay. Fractional inhibitory concentration (FIC) index values were determined for modified lysin polypeptide pp296 and antibiotic combinations against 5 methicillin-sensitive Staphylococcus aureus (MSSA) and 5 methicillin resistant Staphylococcus aureus (MRSA) isolates. An FIC index value of ≤0.5 may be interpreted as strong synergy between the two agents, while a value between 0.5 and 1 may still be considered a synergistic effect. Given that pp296 has four amino acid replacements in the catalytic domain, the ability of pp296 to synergize with antibiotics was unexpected. […] Qualitatively similar results may be anticipated upon performing similar assays using other de-immunized active variants, such as pp55, pp61, pp65, pp400, and pp619, in accordance with the present disclosure.
In another experiment, the ability of modified lysin polypeptide pp296 to synergize with daptomycin and vancomycin was assessed using a checkerboard analysis. FIC (fractional inhibitory concentration) index values were determined for pp296 and antibiotic combinations against 5 MSSA and 5 MRSA isolates. A total of 50 μl of Mueller-Hinton broth (BBL) was distributed into each well of microdilution plates. The first antibiotic of the combination was serially diluted along the ordinate, while the second drug was diluted along the abscissa. An inoculum equal to a 0.5 McFarland turbidity standard was prepared from each S. aureus isolate in MHB. Each microtiter well was inoculated with 100 μl of a bacterial inoculum of 5×10^5 CFU/ml, and the plates were incubated at 37° C. for 18 h under aerobic conditions. The resulting checkerboard contained each combination of two antibiotics, with wells that contained the highest concentration of each antibiotic at opposite corners. […] To quantify the interactions between the antibiotics being tested, the FIC index (the combination of antibiotics that produced the greatest change from the individual antibiotic's MIC) value was calculated for each strain and antibiotic combination as follows:
(A/MICA)+(B/MICB)=FICA+FICB=FIC index,
Checkerboards were generated using combinations of pp296 with either daptomycin or vancomycin against 5 MRSA strains (MW2, JMI-5675, JMI-4408, JMI-6181, and JMI-6182) and 5 MSSA strains (ATCC 29213, JMI-40979, JMI-43257, JMI-41293, and JMI-49315). Synergy was defined as inhibitory activity greater than what would be predicted by adding the two components together.

A short description of series [4]: Single 2-hour intravenous infusion toxicity study in rats. Format: in vivo, Sprague Dawley rats. The source says:
The objectives of this study were to evaluate the potential toxicity and toxicokinetic profile of pp296 when administered as a single 2-hour intravenous infusion to Sprague Dawley rats, as well as to evaluate the recovery, persistence, or progression of any effects following a minimum of a 3-day recovery period.
The following Tables 9 and 10 present the study group arrangement. There were 5 male and 5 female rats per group in Phase A.
For the main (Phase A) and toxicokinetic (Phase B) phases, animals received a single 2-hour intravenous infusion. Phase A animals received a single 2-hour intravenous infusion at escalating doses until the maximum tolerated dose (MTD) was determined up to a high dose of 100 mg/kg. A minimum of 3 days of observation was allowed between each pp296 dose. Animals assigned to Groups 2 through 5 were necropsied approximately 72 hours following the end of dose administration. ^aThe vehicle was 20 mM L-histidine, 5% D-sorbitol (w/v), pH 7.0 (±0.1).
The following parameters and endpoints were evaluated in this study: clinical signs, body weight, body weight gain, food consumption, clinical pathology parameters (hematology, coagulation, serum chemistry, and urinalysis), gross necropsy findings, and histopathologic examinations.

Series [5] is described as follows: 7-day repeated 2-hour infusion toxicity study in rats. Format: in vivo, Sprague Dawley rats. The settings on record: rats, 0.5, 2.5, or 10 mg/kg/day, 7 consecutive days. The method, then:
The objective of this study was to evaluate the potential toxicity and toxicokinetic profile of modified lysin polypeptide pp296 when administered daily by 2-hour infusion to Sprague Dawley rats for 7 consecutive days.
Experimental procedures, animals and treatment are summarized below in Table 11.
All surviving animals were submitted for necropsy on Day 8 (Terminal Euthanasia). Necropsies were performed and organ weights were collected by Testing Facility personnel. Statistical analysis of organ weight data was performed by the testing facility engaged on a fee-for-service commercial basis. Tissues required for microscopic evaluation were trimmed, processed routinely, embedded in paraffin, and stained with hematoxylin and eosin by Charles River Laboratories Ashland, LLC. Microscopic evaluation was conducted by a board-certified veterinary pathologist on select protocol-specified tissues from all animals in Groups 1 through 4 and all gross lesions from all animals. Tissues were evaluated by light microscopy.

B1: pp296: Modified PlySs2 lysin, SEQ ID NO: 6: L92W, V104S, V128T, Y137S, Y164K, N184D, S198Q (protein)
chain: MTTVNEALNNVRAQVGSGVSVGNGECYALASWYERMISPDATVGLGAGVGWVSGAIGDTISAKNIGSSYNWQANGWTVSTSGPFKAGQIVTWGATPGNPYGHVSIVEAVDGDRLTILEQNYGGKRYPTRNYYSAASSRQQVVHYITPPGTVAQSAPNLAGSRSKRETGTMTVTVDALNVRRAPDTSGEIVAVYKRGEQFDYDTAIIDVNGYAWVSYIGGSGKRNYVATGATKDGKRFGNAWGTFK
B1: the MIC50 in series [1] and in series [2] was 1 µg/mL each time. Moreover, the MIC90 in series [1] and in series [2] was 1 µg/mL each time. In addition, the entries for the “MIC Range” value in series [1] and in series [2] were 0.5 to 2 µg/mL and 0.25 to 2 µg/mL, respectively. Moreover, the FIC index values in series [3] (with both daptomycin and vancomycin, predominantly) was ~0.5. Moreover, the FIC index came out at 0.375 in series [3] (MRSA JMI-6182), 0.625 in series [3] (MSSA ATCC 29213), 0.375 in series [3] (MSSA strain JMI-40979) and 0.5 in series [3] (against 6 of the 10 strains examined). The “No-observed-adverse-effect level (NOAEL)” value in series [4] (single 2-hour intravenous infusion) was > 100 mg/kg. For the same molecule, the “Tolerability / adverse findings” value in series [4] (single intravenous infusion, 5, 25, 50, and 100 mg/kg) is reported as “well tolerated with no adverse findings at all doses; also recorded: well-tolerated with no adverse findings at all doses”. Further, in series [5] (2-hour infusion), the Toxicity findings entry is recorded as “No toxicity was found; also recorded: no pp296-related gross, microscopic, or organ weight findings”. For the same molecule, the Unscheduled deaths entry in series [5] was “no unscheduled deaths”.
